In experiment [1] the target is mDR6 expressed on mouse T cells (DO11.10-T cells, splenocytes) (mouse) (UniProt Q9EPU5). Description: cell-based or functional assay.
In experiment [2] the target is T1, mouse Sdc1 (mSdc1) expressed on cells (mouse, UniProt P18828 18-311, heparan sulfate is bound at position 45 and position 47).
T1 construct: On DO11.10-T or A20 cells transformed with pMXsIG/mSdc1, and endogenous on A20 cells (shRNA experiment); also called mouse syndecan-1; CD138
T1 sequence: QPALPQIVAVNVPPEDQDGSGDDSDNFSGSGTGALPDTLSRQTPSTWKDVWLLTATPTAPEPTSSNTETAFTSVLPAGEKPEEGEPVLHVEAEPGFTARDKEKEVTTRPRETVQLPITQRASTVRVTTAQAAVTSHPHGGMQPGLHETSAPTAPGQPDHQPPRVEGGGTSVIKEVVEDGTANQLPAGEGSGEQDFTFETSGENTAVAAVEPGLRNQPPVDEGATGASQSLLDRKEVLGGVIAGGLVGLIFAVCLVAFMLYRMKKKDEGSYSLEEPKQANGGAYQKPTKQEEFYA
Description: binding of labeled Fc fusions to DO11.10-T cells expressing mSdc1. From the text:
An expression vector (pMXsIG/mSdc1) into which a gene encoding mSdc1 (SEQ ID NO: 7) was incorporated in an expressible manner, and a control vector (pMXsIG) were introduced into DO11.10-T cells to prepare transformed cells. Binding abilities of these two kinds of transformed cells to labeled mDR6-hFcm and to labeled mDR6-hFcm deltaCRD1 was examined, and it was confirmed that binding ability of mDR6-hFcm deltaCRD1 increased to about 2.5 times of that of mDR6-hFcm (FIG. 22).

In experiment [1], mSdc1-His (ligand) had an IL2 production level of DO11.10-T cells stimulated with anti-CD3 antibody, mSdc1-His at final concentration 100 nM of 50%.

B1: mDR6-hFcm deltaCRD1 (Fc fusion)
chain: QPEQKTLSLPGTYRHVDRTTGQVLCHDCSQPCPWPMIERLPCAALTDRECICPPGMYQSNGTCAPHTVCPVGWGVRKKGTENEDVRCKQCARGTFSDVPSSVMKCKAHTDCLGQNLEVVKPGTKETDNVCGMRLFFSSTNPPSSGTVTFSHPEHMESHDVPSSTYEPQGMNSTDSNSTASVRTKVPSGIEEGTVPDNTSSTSGKEGTNRTLPNPPQVTHQQAPHHRHILKLLPSSMEATGEKSSTAIKAPKRGHPRQNAHKHFDINEHL
modifications: labeled
notes: Derived from pcDNA/mDR6-hFcm; the Fc part is that of mDR6-hFcm; also called CRD1-deficient solubilized DR6 mutant; cysteine rich domain-deficient mDR6 mutant; not shown: human IgG Fc region
In the case of B1, the “binding ability relative to mDR6-hFcm” value in experiment [2] was roughly 2.5 times.

Values taken from patent US20160289331A1 (NATIONAL UNIVERSITY CORP HOKKAIDO UNIVERSITY, published 2016).
